Here are results for one substance from publication PMC2841635.

The target of this assay is purified tagged Ack1 (HA-tagged Ack1 in methods and Fig. S1B; Myc-tagged Ack1 in the results) (UniProt Q07912). The assay can be described thus: co-IP; in vitro binding assay: 50 nM of purified Ack and AKT in mRLB (25 mM Tris pH 7.5, 175 mM NaCl, 1% Triton X-100, 10% glycerol), 30 mins at room temperature, then anti-Ack1 antibodies and Protein-A-sepharose overnight at 4°C; IB with anti-AKT antibody.
Sequence of UniProt Q07912 (Q07912 whole entry): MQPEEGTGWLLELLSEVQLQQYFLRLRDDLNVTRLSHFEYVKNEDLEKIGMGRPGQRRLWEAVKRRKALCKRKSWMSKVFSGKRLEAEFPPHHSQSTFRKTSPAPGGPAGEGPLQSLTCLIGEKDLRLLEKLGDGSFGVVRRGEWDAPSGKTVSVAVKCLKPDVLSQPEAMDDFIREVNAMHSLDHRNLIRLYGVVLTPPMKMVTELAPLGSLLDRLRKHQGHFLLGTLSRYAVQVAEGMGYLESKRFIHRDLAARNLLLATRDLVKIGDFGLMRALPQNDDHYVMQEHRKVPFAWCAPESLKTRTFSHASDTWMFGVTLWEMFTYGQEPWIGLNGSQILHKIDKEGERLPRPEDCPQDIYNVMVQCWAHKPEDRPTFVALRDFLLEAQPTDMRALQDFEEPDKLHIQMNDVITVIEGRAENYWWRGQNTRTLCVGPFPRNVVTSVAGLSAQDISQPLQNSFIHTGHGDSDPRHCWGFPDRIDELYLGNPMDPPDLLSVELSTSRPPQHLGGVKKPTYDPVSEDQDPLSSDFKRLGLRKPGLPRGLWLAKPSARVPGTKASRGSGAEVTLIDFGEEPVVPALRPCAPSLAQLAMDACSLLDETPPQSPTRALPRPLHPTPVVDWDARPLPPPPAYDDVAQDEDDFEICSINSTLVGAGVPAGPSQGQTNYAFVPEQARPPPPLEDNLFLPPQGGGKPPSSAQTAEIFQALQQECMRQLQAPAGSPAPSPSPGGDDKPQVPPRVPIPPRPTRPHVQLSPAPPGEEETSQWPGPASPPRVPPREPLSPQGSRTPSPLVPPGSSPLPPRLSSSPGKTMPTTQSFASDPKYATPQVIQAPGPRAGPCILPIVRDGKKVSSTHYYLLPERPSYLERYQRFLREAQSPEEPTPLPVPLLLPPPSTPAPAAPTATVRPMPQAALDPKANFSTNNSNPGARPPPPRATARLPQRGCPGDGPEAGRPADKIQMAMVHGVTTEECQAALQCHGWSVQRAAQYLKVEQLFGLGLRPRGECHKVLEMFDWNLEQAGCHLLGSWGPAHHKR

In turn, “HA-tagged AKT expressed in HEK293T/HEK293 cells (from UniProt P31749 1-480) (enzyme)” displayed a percent of total AKT in complex with Ack1 of 6.35%.
